# Biological target: human H3.1/H4 tetramer (ITC sample) (human) (UniProt P68431)
# Test: ITC
substance,measurement,value
mouse POLA1 N1 fragment (ITC sample) (from UniProt P33609 1-110) (domain or fragment),Kd,7.9 µM
